In patent publication US20230039279:

Legend:
[1] = target: T1, HNE peptide substrate H2, GRCR-PMAVVQSVP-RCRG (not fully specified)
T1 chain: GRCRPMAVVQSVPRCRG

[2] = target: T2, MMP-9 sensitive peptide (GPRSLSG-RRCG) linked ibuprofen (not fully specified)
T2 chain: GPRSLSGRRCG

B1: human neutrophil elastase (HNE) (protein)
chain: IVGGRRARPHAWPFMVSLQLRGGHFCGATLIAPNFVMSAAHCVANVNVRAVRVVLGAHNLSRREPTRQVFAVQRIFENGYDPVNLLNDIVILQLNGSATINANVQVAQLPAQGRRLGNGVQCLAMGWGLLGRNRGIASVLQELNVTVVTSLCRRSNVCTLVRGRQAGVCFGDSGSPLVCNGLIHGIASFVRGGCASGLYPDAFAPVAQFVNWIDSIIQ
[1]
  degradation of H2-M2 combinational hydrogel and release of PLGA particles over 24 hours: H2 and M2 peptide substrates were preferentially cleaved by HNE and MMP-9 proteases respectively
[2]
  maximum cumulative drug release at 48 hours from the dual-responsive conjugate hydrogel, HNE alone (1 µg/ml): maximum cumulative drug release reached 24%, which was much lower than the release in enzyme MMP-9 solution
  specificity of protease-triggered ibuprofen liberation (FIG. 10B): the peptide sequence, GPRSLSGRRCG (SEQ ID NO: 20), as a spacer illustrated a good specificity toward MMP-9 compared to cathepsin B and human neutrophil elastase (HNE)
